These results are taken from US6461867.

The target of the experiment is T1, soluble H-2K^b (K^bsol), empty heterodimer of truncated K^b heavy chain and murine β-2 microglobulin (murine), P01901.
T1 chain 1: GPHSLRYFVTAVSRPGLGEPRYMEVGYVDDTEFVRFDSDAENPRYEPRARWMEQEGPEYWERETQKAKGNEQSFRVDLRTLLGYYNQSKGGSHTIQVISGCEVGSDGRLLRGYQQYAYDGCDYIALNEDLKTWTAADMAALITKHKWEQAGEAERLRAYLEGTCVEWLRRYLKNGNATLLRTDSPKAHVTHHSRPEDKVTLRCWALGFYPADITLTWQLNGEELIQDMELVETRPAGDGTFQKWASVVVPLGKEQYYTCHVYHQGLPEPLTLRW
T1 chain 2: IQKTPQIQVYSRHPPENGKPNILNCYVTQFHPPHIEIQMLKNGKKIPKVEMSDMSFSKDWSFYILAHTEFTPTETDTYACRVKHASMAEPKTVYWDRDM

The term Kd denotes the constant that tells how readily two partners part at equilibrium. As to SIINFEKL (modifications not checked) [OVA-8 peptide (ovalbumin 257-264)], the Kd was found to be 4.1 nM.
Then EQLESIINFEKLTEWTSSNVMEER (modifications not checked) [OVA-24 peptide], with 71000 nM.
For the molecule SIINFEKLT (modifications not checked) [OVA-9C peptide], the Kd was found to be 11 nM.
Then SIINFEKLTE (modifications not checked) [OVA-10C peptide], with 14 nM; and LESIINFEKL (modifications not checked) [OVA-10N peptide], with 280 nM.
